Reference: patent US20200239537

Tests used:
[1] = tested on: N-MeLeu9-apelin-17 A2 (11)

recombinant human plasma kallikrein KLKB1 (rhKLKB1, Novoprotein), sequence (chain, as listed by the source): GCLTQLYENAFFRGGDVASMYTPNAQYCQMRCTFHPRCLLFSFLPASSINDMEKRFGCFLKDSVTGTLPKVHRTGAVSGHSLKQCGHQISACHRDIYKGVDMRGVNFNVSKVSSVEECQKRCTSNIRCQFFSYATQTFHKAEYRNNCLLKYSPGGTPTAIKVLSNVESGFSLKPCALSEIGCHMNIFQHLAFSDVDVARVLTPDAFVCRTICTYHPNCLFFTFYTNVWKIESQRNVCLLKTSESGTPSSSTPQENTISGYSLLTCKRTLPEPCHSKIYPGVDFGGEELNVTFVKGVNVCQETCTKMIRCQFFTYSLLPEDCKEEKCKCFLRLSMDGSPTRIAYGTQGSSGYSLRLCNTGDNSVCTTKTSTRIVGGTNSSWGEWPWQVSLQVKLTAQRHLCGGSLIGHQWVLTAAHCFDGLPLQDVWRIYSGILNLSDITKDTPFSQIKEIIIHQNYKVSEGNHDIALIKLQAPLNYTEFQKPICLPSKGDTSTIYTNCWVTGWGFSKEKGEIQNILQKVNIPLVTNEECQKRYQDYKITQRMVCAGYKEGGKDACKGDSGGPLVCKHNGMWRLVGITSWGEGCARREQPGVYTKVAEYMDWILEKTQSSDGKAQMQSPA

**Q.** Which results are given for “recombinant human plasma kallikrein KLKB1 (rhKLKB1, Novoprotein)”?
**A.** Km [1]: 245 µM; kcat (1/S) [1]: 16.5 1/S; kcat/Km (1/MS) [1]: 67000 1/MS; Km (apelin-17 (2)): 97 µM; kcat (1/S) (apelin-17 (2)): 13.7 1/S; kcat/Km (1/MS) (apelin-17 (2)): 140000 1/MS; Km (apelin-17 A2 (5)): 30 µM; kcat (1/S) (apelin-17 A2 (5)): 1.4 1/S; kcat/Km (1/MS) (apelin-17 A2 (5)): 47000 1/MS
